Results from patent US9278138B2, “Peptide linkers for effective multivalent peptide binding” (E. I. DU PONT DE NEMOURS AND COMPANY, priority 2008, dated 2016).
Residue numbers refer to the chain shown, from its start.

B1: MEA4-[(KP)6GG]2-MEA4: hair-binding domain, SEQ ID NO: 102 (peptide)
chain: PSHINKTNPHQGNHHSEKTQRQGPKPKPKPKPKPKPGGKPKPKPKPKPKPGGPAHINKTNPHQGNHHSEKTQRQGS
B2: HP2-TonB-Gray3: hair-binding domain, SEQ ID NO: 85, also found in peptide HC353 (peptide)
chain: PSAQSQLPDKHSGLHERAPQRYGPEPEPEPEPIPEPPKEAPVVIEKPKPKPKPKPKPPAHDHKNQKETHQRHAAGS
B3: HP2-(EEAAKK)4-Gray1: hair-binding domain, SEQ ID NO: 73 (peptide)
chain: PSAQSQLPDKHSGLHERAPQRYGPEEAAKKEEAAKKEEAAKKEEAAKKPAGMPAMHWIHPFAGS
B4: Gray5-[(KP)6GG]2-HP2: hair-binding domain, SEQ ID NO: 99 (peptide)
chain: PSTAEIQSSKNPNPHPQRSWTNGPKPKPKPKPKPKPGGKPKPKPKPKPKPGGPAAQSQLPDKHSGLHERAPQRYGS
B5: Gray3-(EAAAKLL)4-HB1: hair-binding domain, SEQ ID NO: 100 (peptide)
chain: PSHDHKNQKETHQRHAAGPEAAAKLLEAAAKLLEAAAKLLEAAAKLLPATPPTNVLMLATKGS
B6: Gray5-[(KP)6GG]2-Gray4A: hair-binding domain, SEQ ID NO: 78 (peptide)
chain: PSTAEIQSSKNPNPHPQRSWTNGPKPKPKPKPKPKPGGKPKPKPKPKPKPGGPAHNHMQERYTAPQHSPSVNGLGS
B7: KF11-[(KP)6GG]2-Gray4A: hair-binding domain, SEQ ID NO: 97 (peptide)
chain: PSNTSQLSTGPKPKPKPKPKPKPGGKPKPKPKPKPKPGGPAHNHMQERYTAPQHSPSVNGLGS
B8: HP2-(EEAAKK)5-Gray4A: hair-binding domain, SEQ ID NO: 74 (peptide)
chain: PSAQSQLPDKHSGLHERAPQRYGPEEAAKKEEAAKKEEAAKKEEAAKKEEAAKKPAHNHMQERYTAPQHSPSVNGLGS
B9: MEA4-(EAAAKLL)3-IB5A: hair-binding domain, SEQ ID NO: 94 (peptide)
chain: PSHINKTNPHQGNHHSEKTQRQGPEAAAKLLEAAAKLLEAAAKLLPATPPELLHGAPRSGS
B10: Gray5-(EAAAKLL)3-Gray3: hair-binding domain, SEQ ID NO: 92 (peptide)
chain: PSTAEIQSSKNPNPHPQRSWTNGPEAAAKLLEAAAKLLEAAAKLLPAHDHKNQKETHQRHAAGS
B11: Gray3-TonB-HP1: hair-binding domain, SEQ ID NO: 98 (peptide)
chain: PSHDHKNQKETHQRHAAGPEPEPEPEPIPEPPKEAPVVIEKPKPKPKPKPKPPAGSCVDTHKADSCVANNGPATGS
B12: HP2-TonB-MEA4: hair-binding domain, SEQ ID NO: 89 (peptide)
chain: PSAQSQLPDKHSGLHERAPQRYGPEPEPEPEPIPEPPKEAPVVIEKPKPKPKPKPKPPAHINKTNPHQGNHHSEKTQRQGS
B13: HP2-TonB-IB5A: hair-binding domain, SEQ ID NO: 88 (peptide)
chain: PSAQSQLPDKHSGLHERAPQRYGPEPEPEPEPIPEPPKEAPVVIEKPKPKPKPKPKPPATPPELLHGAPRSGS
B14: HP2-TonB-HB1: hair-binding domain, SEQ ID NO: 93 (peptide)
chain: B13 chain with E63T, L64N, L65V, H66L, G67M, A68L, P69A, R70T, S71K
B15: HP2-TonB-HP2: hair-binding domain, SEQ ID NO: 91 (peptide)
chain: PSAQSQLPDKHSGLHERAPQRYGPEPEPEPEPIPEPPKEAPVVIEKPKPKPKPKPKPPAAQSQLPDKHSGLHERAPQRYGS
B16: HP2-(EEAAKK)4-MEA4: hair-binding domain, SEQ ID NO: 75 (peptide)
chain: PSAQSQLPDKHSGLHERAPQRYGPEEAAKKEEAAKKEEAAKKEEAAKKPAHINKTNPHQGNHHSEKTQRQGS
B17: Gray5-(EAAAKLL)3-MEA4: hair-binding domain, SEQ ID NO: 90 (peptide)
chain: PSTAEIQSSKNPNPHPQRSWTNGPEAAAKLLEAAAKLLEAAAKLLPAHINKTNPHQGNHHSEKTQRQGS

Columns and labels:
[1] = Phage titer assay of phage binding to hair; design: species or system human; conditions: phage-displayed peptide; six gray hair strands; relative to HP2-TonB-Gray3 = 100
Description: (§1) Phage particles recovered from panning (Example 2) were used to infect E. coli 10GF′ and transformants were purified by colony isolation. Purified phagemid clones were infected with helper phage VCSM13 and phage particles were isolated. Those purified phage clones were assayed for binding to hair by two methods.
Six gray hair strands (1.5 cm long) were blocked with BSA (1 mg/mL) at room temperature (˜21° C.) for 30 min in 1.5 mL microfuge tubes, then washed twice with tris buffered saline (TBS). Phage particles were added in TBS plus 0.1% TWEEN®-20 and incubated at room temperature for 1 hour with gentle shaking. The hair was then washed 3 times with TBS plus 0.5% TWEEN®-20, and centrifuged briefly to remove excess liquid. E. coli 10GF′ (1 mL; OD600nm=0.5) was added for 15 min. Aliquots were plated on selective plates and phagemid-containing colonies were counted (Table 4)

[2] = Phage ELISA of phage binding to hair; design: species or system human; conditions: phage-displayed peptide, 1×10^11 pfu; A450; relative to HP2-TonB-Gray3 = 100
Description: as §1
Gray hair (200 strands, 1.5 cm long per bundle were blocked with BSA (1 mg/mL) at room temperature (˜21° C.) for 30 min in 1.5 mL microfuge tubes, then washed 3 times with TBS. Phage particles (1×10^11 pfu) were added in TBS plus 0.1% TWEEN®-20 and incubated at room temperature for 1 hr with gentle shaking. The hair was then washed 5 times with TBS plus 0.5% TWEEN®-20. Hair with bound phage was incubated with HRP/Anti-M13 monoclonal conjugate (GE Healthcare Bio-Science Corp, Piscataway, N.J.) at room temperature (˜21° C.) for 1 hr with gentle shaking, then washed 6 times with TBS plus 0.5% TWEEN®-20. IMMUNOPURE® TMB substrate kit (High sensitivity, Pierce, Rockford, Ill.; a division of Thermo Scientific) was used for colorimetric assay. After 15˜20 min development with gentle shaking, the reaction was stopped, and absorbance was determined at 450 nm. The Phage titer and ELISA data were reported relative to the activity observed for the hair-binding domain HP2-TonB-Gray3. (Table 4).

Molecule | Phage Titer (%) relative to the activity of HP2-TonB-Gray3 [1] [%] | ELISA (%) relative to the activity of HP2-TonB-Gray3 [2] [%]
Gray1-(KP)8-Gray1: hair-binding domain, SEQ ID NO: 77 (PSGMPAMHWIHPFAGPKPKPKPKPKPKPKPKPPAGMPAMHWIHPFAGS) | 1 | 1
Gray3-[(KP)6GG]2-KF11: hair-binding domain, SEQ ID NO: 83 (PSHDHKNQKETHQRHAAGPKPKPKPKPKPKPGGKPKPKPKPKPKPGGPANTSQLSTGS) | 1 | 1
HB1-(KGGGS)4-HP2: hair-binding domain with flexible linker, SEQ ID NO: 95 (PSTPPTNVLMLATKGPKGGGSKGGGSKGGGSKGGGSPAAQSQLPDKHSGLHERAPQRYGS) | 10 | 1
HB1-(KP)12-IB5A: hair-binding domain, SEQ ID NO: 96 (PSTPPTNVLMLATKGPKPKPKPKPKPKPKPKPKPKPKPKPPATPPELLHGAPRSGS) | 5 | 1
HP2-(EEAAKK)2-MEA4: hair-binding domain, SEQ ID NO: 76 (PSAQSQLPDKHSGLHERAPQRYGPEEAAKKEEAAKKPAHINKTNPHQGNHHSEKTQRQGS) | 330 | 130
KF11-[(KP)6GG]2-KF11: hair-binding domain, SEQ ID NO: 101 (PSNTSQLSTGPKPKPKPKPKPKPGGKPKPKPKPKPKPGGPANTSQLSTGS) | 1 | 1
B1 | 1 | 1
B2 | 100 | 100
B3 | 40 | 8
B4 | 1 | 1
B5 | 1 | 1
B6 | 1 | 1
B7 | 1 | 1
B8 | 50 | 80
B9 | 10 | 20
B10 | 10 | 60
B11 | 1 | 1
B12 | 1 | 1
B13 | 50 | 100
B14 | 30 | 1
B15 | 55 | 55
B16 | 80 | 170
B17 | 25 | 115
